The test system of assay [1] is soluble forms of FcγRIa and FcγRIIIa in human and cynomolgus monkey. The assay is described as follows: Binding to various FcγRs (BIACORE T200). Particulars: 20° C., HBS-EP+ (FIG. 27). As for the experimental part: Soluble FcγRIa and FcγRIIIa in both human and cynomolgus monkey were produced in the form of His-tagged molecules by methods known to those of ordinary skill in the art. […] Next, soluble FcγRIa or FcγRIIIa was injected with a running buffer (used as a reference solution), and was made to interact with the antibodies captured onto the sensor chip. HBS-EP+ (GE Healthcare) was used as the running buffer, and HBS-EP+ was also used to dilute the soluble FcγRIa or FcγRIIIa. […] All measurements were carried out at 20° C.

The test system of assay [2] is post-surgical adhesion. The assay is described as follows: Adhesion after surgery (area surrounding the incision site) in surgically-induced endometriosis monkey models. Format: in vivo, cynomolgus monkeys. Particulars: 10 mg/kg; two months before versus six months after initiation of administration, five evaluators. As for the experimental part: Specifically, adhesion to the area surrounding the incision site on the abdominal wall was compared before and after administration and evaluated by five evaluators on a three-point scale: (1) Improved, (2) Stable, and (3) Progressed. Ratings with a consensus among three or more of the five evaluators were adopted; otherwise (2) Stable was used. Evaluations were carried out on six monkeys in the vehicle group as well as seven monkeys in the antibody […]/[…]-[…] administration group. […] The monkey with “Progressed” was an individual in which the blood concentration of antibody […]/[…]-[…] had decreased due to anti-antibody production.

Assay [3] deals with post-surgical adhesion. The assay is described as follows: Post-surgical adhesion-induced monkey model. Set-up: key: ○: Adhesion found; x: No adhesion. Format: in vivo, cynomolgus monkeys. The following applies: 10 mg/kg i.v. one hour or less after surgery, laparoscopy 24 to 35 days later; individuals #201, #206. The procedure:
To prepare a post-surgical adhesion-induced model, female cynomolgus monkeys 9 to 16 years of age (provided by the Tsukuba Primate Research Center at the National Institutes of Biomedical Innovation, Health and Nutrition) were treated under anesthesia as follows. Anesthesia was performed using balanced anesthesia of ketamine/xylazine (mixed at an adequate ratio of about 2:1) and isoflurane. An incision of 5 to 6 cm was made in the median line of the abdominal wall. After opening the abdomen, a 1-cm incision was made on the uterine corpus and sutured with 4 stitches using a single suture. Then, the whole uterus was brushed five times with gauze. Next, a 1-cm incision was made to the right abdominal wall peritoneal part at 2 cm from the incised median line of the abdominal wall and sutured by running suture with 4 stitches using an absorbable suture. After suture, the sutured part was brushed five times with gauze. Likewise, the peritoneum of left abdominal wall was incised, sutured, and brushed with gauze. Finally, the median line of abdominal wall was sutured by running suture with 10 to 11 stitches. The entire steps were completed in one hour or less. The antagonist Antisedan (in roughly the same amount as that of xylazine) and the antibiotic cephradine were administered at the time of awakening after surgery. Then, the pain reliever Zalban was administered for two days after surgery, and the monkeys were observed regularly every day to confirm the absence of post-surgical abnormalities. At laparoscopic observation, anesthesia and post-surgical monitoring were also performed in the same way.
The control group was untreated. 24 to 35 days after administration of the anti-IL-8 antibody, laparoscopy was performed to observe the adhesion formed due to incision, suture, and blushing with gauze. The abdomen was incised in the median line under anesthesia, and laparoscopic observation was performed by inserting a trocar and then introducing a laparoscope. The laparoscope was connected to a video system (KARL STORZ) and a monitor. The video system was used for recording, and the monitor was used for intraperitoneal observation. The size of the adhesion was measured using a graduated bar or graduated forceps. The presence, range, and location of adhesion were assessed during laparoscopic observation. […] Although adhesion was found in individual No. 206 in the anti-IL-8 antibody administration group, no adhesion was found in the right and left abdominal wall peritoneum or at the uterine incision site in individual No. 201. […] Those skilled in the art will naturally appreciate that anti-IL-8 antibodies may exert a stronger adhesion formation-preventive effect by appropriately altering the timing of administration or such. […]

B1: H1009/L395-F1974m: H1009-F1974m (SEQ ID NO:36) heavy chain, L395-kOMT light chain; the anti-IL-8 antibody of Table 29 (antibody)
heavy: QVQLVESGGGLVQPGGSLRLSCAASGFTFSDYYLSWVRQAPGKGLEWVGLIRNKDNYHTPEYSASVKGRFTISRDDSKNSLYLTMSDLKTEDTAVYYCARENHRYDVELAYWGQGTLVTVSSASTKGPSVFPLAPSSKSTSGGTAALGCLVKDYFPEPVTVSWNSGALTSGVHTFPAVLQSSGLYSLSSVVTVPSSSLGTQTYICNVNHKPSNTKVDKKVEPKSCDKTHTCPPCPAPELRRGPSVFLFPPKPKDTLMISRTPEVTCVVVDVSHEDPEVKFNWYVDGVEVHNAKTKPREEQYNSTYRVVSVLTVLHQDWLNGKEYKCKVSNKGLPSSIEKTISKAKGQPREPQVYTLPPSREEMTKNQVSLTCLVKGFYPSDIAVEWESNGQPENNYKTTPPVLDSDGSFFLYSKLTVDKSRWQQGNVFSCSVLHEALHAHTTRKELSLSP
light: DIQMTQSPSSLSASVGDRVTITCRASEIIYSYLAWYQQKPGKAPKLLIYKAKTHADGVPSRFSGSGSGTDFTFTISSLQPEDIATYYCKHHFGFPRTFGQGTKVEIKRTVAAPSVFIFPPSDEQLKSGTASVVCLLNNFYPREAKVQWKVDNALQSGNSQESVTEQDSKDSTYSLSSTLTLSKADYEKHKVYACEVTHQGLSSPVTKSFNRGEC
As to B1, the “binding to FcγRs (hFcγRIa, hFcγRIIIa, cynoFcγRIa, cynoFcγRIIIa)” value in assay [1] is given as “not to bind to any of the FcγRs”. Moreover, in the assay with post-surgical adhesion [2], the “adhesion to the area surrounding the incision site: Improved (monkeys/group)” value is 6/7, the “adhesion to the area surrounding the incision site: Progressed (monkeys/group)” value is recorded as 1/7 and the “adhesion to the area surrounding the incision site: Stable (monkeys/group)” value was 0/7. Besides, in the assay on post-surgical adhesion [3], the “adhesion at incision site: Abdominal wall Median line” value is “○”; the “adhesion at incision site: Peritoneum (L)” value is “○ and x”; the “adhesion at incision site: Peritoneum (R)” value was “○ and x”; the “adhesion at incision site: Uterus” value is “○ and x”.
